How the values were obtained:
[1] = biological target: T1, mouse FcγRIII extracellular domain, His-tagged GST fusion (mouse, UniProt P08508 31-215); experiment: Fcγ receptor ELISA; bar = fold change in binding relative to Herceptin (EC50 Herceptin/EC50 sample), log axis 0.1-100
T1 construct: extracellular domain; also called Mouse III; not shown: His tag and GST
T1 sequence (looked up): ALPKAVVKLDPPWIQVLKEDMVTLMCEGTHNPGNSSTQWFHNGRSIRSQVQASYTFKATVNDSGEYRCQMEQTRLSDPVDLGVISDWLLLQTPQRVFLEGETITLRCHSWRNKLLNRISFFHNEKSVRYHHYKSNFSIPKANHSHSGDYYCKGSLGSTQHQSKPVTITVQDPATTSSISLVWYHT

[2] = biological target: T2, mouse FcγRI extracellular domain, His-tagged GST fusion (mouse, UniProt P26151 25-297); experiment: as above
T2 construct: extracellular domain; also called Mouse I; mFcγRI; not shown: His tag and GST
T2 sequence (looked up): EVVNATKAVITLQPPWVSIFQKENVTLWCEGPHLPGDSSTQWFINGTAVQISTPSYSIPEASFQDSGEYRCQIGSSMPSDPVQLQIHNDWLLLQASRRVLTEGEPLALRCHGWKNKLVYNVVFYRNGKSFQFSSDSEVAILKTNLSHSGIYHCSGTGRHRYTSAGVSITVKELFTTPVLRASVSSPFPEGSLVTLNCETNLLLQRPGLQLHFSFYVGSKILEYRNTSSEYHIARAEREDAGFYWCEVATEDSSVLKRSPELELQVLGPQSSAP

[3] = biological target: T3, mouse FcγRII extracellular domain, His-tagged GST fusion (mouse, UniProt P08101 30-210); experiment: as above
T3 construct: extracellular domain; also called Mouse II; not shown: His tag and GST
T3 sequence (looked up): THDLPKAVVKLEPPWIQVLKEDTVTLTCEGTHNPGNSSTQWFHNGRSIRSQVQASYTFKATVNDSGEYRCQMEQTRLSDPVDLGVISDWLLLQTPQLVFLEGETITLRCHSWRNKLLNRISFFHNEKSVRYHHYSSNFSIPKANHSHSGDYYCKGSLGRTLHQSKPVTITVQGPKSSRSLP

[4] = biological target: T4, human FcγRI extracellular domain, His-tagged GST fusion (human, UniProt P12314 16-292); experiment: ELISA, captured FcγR-GST, monomeric IgG
T4 construct: extracellular domain; also called hFcgRI; FcγRIA; not shown: C-terminal Gly/His6/GST tag

[5] = biological target: T5, human FcγRIIb extracellular domain, His-tagged GST fusion (human, UniProt P31994 43-217); experiment: ELISA, captured FcγR-GST, multimeric IgG
T5 construct: extracellular domain; also called hFcgRIIb; CD32B; not shown: C-terminal Gly/His6/GST tag
T5 sequence (looked up): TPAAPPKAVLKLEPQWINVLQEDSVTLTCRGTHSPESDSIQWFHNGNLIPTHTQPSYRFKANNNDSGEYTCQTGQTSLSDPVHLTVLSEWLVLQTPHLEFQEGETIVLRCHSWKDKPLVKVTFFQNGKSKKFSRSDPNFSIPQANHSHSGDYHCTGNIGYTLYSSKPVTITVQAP

[6] = biological target: T6, human FcγRIIIa (V158) extracellular domain, His-tagged GST fusion (human, UniProt P08637 17-208); experiment: ELISA, captured FcγR-GST, multimeric IgG
T6 construct: extracellular domain; also called hFcgRIII (V158); FcγRIII (V158 allele); not shown: C-terminal Gly/His6/GST tag

[7] = biological target: T7, human FcγRIIIa (F158) extracellular domain, His-tagged GST fusion (human, UniProt P08637 17-208); experiment: ELISA, captured FcγR-GST, multimeric IgG
T7 construct: extracellular domain; also called hFcgRIII (F158); FcγRIII (F158 allele); not shown: C-terminal Gly/His6/GST tag

[8] = biological target: T8, human FcγRIIa extracellular domain, His-tagged GST fusion (human, UniProt P12318 34-217); experiment: ELISA, captured FcγR-GST, multimeric IgG
T8 construct: extracellular domain; also called hFcgRIIa; CD32A; not shown: C-terminal Gly/His6/GST tag
T8 sequence (looked up): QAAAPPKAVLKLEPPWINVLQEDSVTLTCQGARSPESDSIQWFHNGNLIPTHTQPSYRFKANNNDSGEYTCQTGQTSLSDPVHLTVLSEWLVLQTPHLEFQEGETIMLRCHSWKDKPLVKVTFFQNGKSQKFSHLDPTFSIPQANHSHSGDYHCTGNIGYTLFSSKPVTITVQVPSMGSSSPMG

T6 sequence (P08637 17-208 F176V): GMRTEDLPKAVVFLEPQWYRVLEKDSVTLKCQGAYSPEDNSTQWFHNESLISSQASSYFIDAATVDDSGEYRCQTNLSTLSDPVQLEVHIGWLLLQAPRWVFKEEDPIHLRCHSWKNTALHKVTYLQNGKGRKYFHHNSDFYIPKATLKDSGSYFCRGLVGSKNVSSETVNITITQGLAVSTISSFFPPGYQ
T7 sequence (P08637 17-208): as the sequence (P08637 17-208 F176V) above, with V160F counted along it

- binding result [1]: binds
- binding result [2]: binds
- binding result [3]: binds
- EC50 [4]: 0.00158 µg/mL
- EC50 [5]: 1.02 µg/mL
- EC50 [6]: 0.28 µg/mL
- EC50 [7]: 1.52 µg/mL
- EC50 [8]: 0.3 µg/mL
B1: V3-46s IgG (antibody)
heavy: not shown
light: DIQMTQSPSSLSASVGDRVTITCRASQDVSTAVAWYQQKPGKAPKLLIYSASFLYSGVPSRFSGSGSGTDFTLTISSLQPEDFATYYCQQSQISPPTFGQGTKVEIKRTVAAPSVFIFPPSDEQLKSGTASVVCLLNNFYPREAKVQWKVDNALQSGNSQESVTEQDSKDSTYSLSSTLTLSKADYEKHKVYACEVTHQGLSSPVTKSFNRGEC
notes: also called HV3-46S; HV3-46S-Bulk

Source: US20100166741A1 (Genentech, published 2010)
